Experimental findings from US20190248900A1 (Y BIOLOGICS, published 2019) are described below.

For the test, the target named is human PD-1 (NM_005018.2) over-expressed on cells (human, UniProt Q15116 25-288). As to the kind of experiment: cell-based or functional assay.

Changes are numbered by the printed parent chain.

Sequence of human PD-1 (NM_005018.2) over-expressed on cells (Q15116 25-288): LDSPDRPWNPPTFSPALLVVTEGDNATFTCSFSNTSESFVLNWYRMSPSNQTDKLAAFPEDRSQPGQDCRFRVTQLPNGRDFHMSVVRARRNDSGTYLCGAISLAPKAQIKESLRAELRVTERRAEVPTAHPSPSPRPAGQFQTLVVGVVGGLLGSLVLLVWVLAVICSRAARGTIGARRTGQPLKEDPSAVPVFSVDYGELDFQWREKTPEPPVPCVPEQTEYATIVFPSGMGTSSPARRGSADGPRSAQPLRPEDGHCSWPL

B1: PD1-72D10 (antibody, V domains shown)
VH: QVQLVESGGGVVQPGRSLRLSCAASGFTFSSYAMHWVRQAPGKGLEWVAVISYDGSNKYYADSVKGRFTISRDNSKNTLYLQMNSLRAEDTAVYYCTTTTFDSWGQGTLVTVSS
VL: DIVMTQTPLSLPVTPGEAASISCRSSQSLLDSEDGNTYLDWYLQKPGQSPQLLIYTLSHRASGVPDRFSGSGSGTDFTLKISRVEAEDVGIYYCMQRVEFPFTFGQGTKLEIK
On to B1, for which the “EC50 [nM], PD1/PD-L1 blockade bioassay” value is 1.21 nM.

B2: PD1-45D6(A/4C1) (antibody, V domains shown)
VH: B1 VH with S56N, N57D, T97V, T98P, D102E, S103Y
VL: B1 VL with A18P, E33D, E111D
As to B2, the “EC50 [nM], PD1/PD-L1 blockade bioassay” value was found to be 1.76 nM.

B3: PD1-74H12 (antibody, V domains shown)
VH: B1 VH with T78M, Q82E, T97V, T98P, D102E, S103Y, T108S, L109Q
VL: DIVMTQTPLSLSVTPGEPASISCRSSQSLLDSDDGNTYLDWYLQKPGQSPQLLIYTLSHRASGVPDRFSGRGSHTDFTLTISSVEAEDVGVYYCMQRIHFPLTFGQGTRLEIK
In the case of B3, the “EC50 [nM], PD1/PD-L1 blockade bioassay” value was found to be 0.98 nM.

B4: PD1-74A01 (antibody, V domains shown)
VH: B1 VH with A88S, T97V, T98P, D102E, S103Y, T108S, L109Q
VL: B1 VL with A18P, S32R, E33G, D34G, N36H, V98K, F102L, Q106P
In the case of B4, the “EC50 [nM], PD1/PD-L1 blockade bioassay” value came to 1.01 nM.

B5: PD1-49A2(A/1F12) (antibody, V domains shown)
VH: B1 VH with S30R, S31N, S56Q, N57H, G105S
VL: B1 VL with L9H, A18P, S62L, V89S, V98I, F102Y
B5: the “EC50 [nM], PD1/PD-L1 blockade bioassay” value amounted to 1.03 nM.

B6: PD1-49A2(A/2A11) (antibody, V domains shown)
VH: B1 VH with S30R, S56Q, N57D
VL: DIVMTQTPLSLPVTPGEPASISCRSSQSLFDSDDGNTYLDWYLQKPGQSPRLLIYTLSHRALGVPDRFSGSGSGTDFTLKISRVAAEDVGLYYCLQRMGFPYTFGQGTKLEIK
On to B6, for which the “EC50 [nM], PD1/PD-L1 blockade bioassay” value was determined as 0.79 nM.

B7: PD1-49A2(A/1H4) (antibody, V domains shown)
VH: B1 VH with S30P, S31I, S56A, N57H
VL: B1 VL with T7S, V89S, F102Y, E111D
In the case of B7, the “EC50 [nM], PD1/PD-L1 blockade bioassay” value came out at 0.84 nM.

B8: PD1-45D6(A/3H6) (antibody, V domains shown)
VH: B1 VH with A40V, S56N, N57D, T97V, T98P, D102E, S103Y, T108S, L109Q
VL: B1 VL with I91V
Regarding B8, the “EC50 [nM], PD1/PD-L1 blockade bioassay” value came to 1.49 nM.

B9: PD1-45D6(A/5B12) (antibody, V domains shown)
VH: B1 VH with S31V, S56N, N57D, T97V, T98P, D102E, S103Y
VL: B1 VL with L110V
As to B9, the “EC50 [nM], PD1/PD-L1 blockade bioassay” value was 0.8 nM.

B10: PD1-74A11 (antibody, V domains shown)
VH: B1 VH with E6Q, T97A, T98R, S103Y, V110I
VL: B1 VL with A18P, L30F, E33D, H59Y, E85A, L110V, E111D
Regarding B10, the “EC50 [nM], PD1/PD-L1 blockade bioassay” value is 1.31 nM.

B11: PD1-45D6(A/3G1) (antibody, V domains shown)
VH: B1 VH with A40V, S56N, N57D, T97V, T98P, D102E, S103Y, T108S, L109Q
VL: B1 VL with A18P, K80E, I91V, E111D
As to B11, the “EC50 [nM], PD1/PD-L1 blockade bioassay” value was 0.98 nM.

B12: PD1-49A2(A/2B10) (antibody, V domains shown)
VH: B1 VH with S30L, S31V, N57H
VL: B1 VL with A18P, E33D, E85A, I91L, E111D
Turning to B12, the “EC50 [nM], PD1/PD-L1 blockade bioassay” value came out at 0.65 nM.

B13: PD1-45D6(A/5A6) (antibody, V domains shown)
VH: B1 VH with S30R, S31L, Y53H, S56N, N57D, T97V, T98P, D102E, S103Y
VL: B1 VL with A18P, I91V, V98I, E99D, F102Y, E111D
B13: the “EC50 [nM], PD1/PD-L1 blockade bioassay” value came out at 0.92 nM.

B14: PD1-45D6(A/3H4) (antibody, V domains shown)
VH: B1 VH with A40V, S56N, N57D, T97V, T98P, D102E, S103Y, T108S, L109Q
VL: B1 VL with A18P, L30F, E33D, P65S, V89S, E111D
In the case of B14, the “EC50 [nM], PD1/PD-L1 blockade bioassay” value is 1.67 nM.

B15: PD1-45D6(A/4C9) (antibody, V domains shown)
VH: B1 VH with S56N, N57D, T97V, T98P, D102E, S103Y
VL: B1 VL with E85A
As for B15, the “EC50 [nM], PD1/PD-L1 blockade bioassay” value came to 2.72 nM.

B16: PD1-45D6(A/5C8) (antibody, V domains shown)
VH: B1 VH with S30M, S31R, S56N, N57D, T97V, T98P, D102E, S103Y
VL: B1 VL with T7S, A18P, I91V, E111D
For the molecule B16, the “EC50 [nM], PD1/PD-L1 blockade bioassay” value came to 1.44 nM.

B17: PD1-75C10 (antibody, V domains shown)
VH: B1 VH with T97V, T98P, D102E, S103Y, T108S, L109Q
VL: B1 VL with S82T, I91V, V98I, F102Y
For the molecule B17, the “EC50 [nM], PD1/PD-L1 blockade bioassay” value was 0.81 nM.

B18: PD1-45D6(A/5H9) (antibody, V domains shown)
VH: B1 VH with S30W, S31T, S56N, N57D, T97V, T98P, D102E, S103Y
VL: B1 VL with A18P, E33D, P65S, K80E, I91V, V98R, E99D, L110V
On to B18, for which the “EC50 [nM], PD1/PD-L1 blockade bioassay” value was found to be 2 nM.

B19: PD1-45D6(A/4D4) (antibody, V domains shown)
VH: B1 VH with S56N, N57D, T97V, T98P, D102E, S103Y
VL: B1 VL with A18P, D76E, T78N, K80R, L110V, E111D
For the molecule B19, the “EC50 [nM], PD1/PD-L1 blockade bioassay” value was found to be 1.74 nM.

B20: PD1-45D6(A/4H6) (antibody, V domains shown)
VH: B1 VH with S56N, N57D, T97V, T98P, D102E, S103Y
VL: B1 VL with A18P, L30F, E33D, I91L
B20: the “EC50 [nM], PD1/PD-L1 blockade bioassay” value is 1.19 nM.
